Patent US20210238281A1 (INSTITUT NATIONAL DE LA SANTE ET DE LA RECHERCHE MEDICALE …, published 2021)

Tests used:
[1] = target: T1, recombinant human MOG protein (human, UniProt Q16653 30-154, limits assumed); assay: phage-scFv ELISA on coated recombinant human MOG (0.5 µg/well), anti-M13 HRP, OD450 over BSA background
T1 construct: Bought recombinant protein; also called HMOG
T1 sequence (looked up): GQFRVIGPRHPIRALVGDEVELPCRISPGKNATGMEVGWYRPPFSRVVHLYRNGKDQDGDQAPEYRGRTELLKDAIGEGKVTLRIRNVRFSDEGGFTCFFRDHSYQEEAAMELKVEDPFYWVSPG
Description: (§1) The binding characteristics of the scFvs expressed on the surface of the phages isolated during the screening were determined using an ELISA assay using the recombinant MOG protein (R&D system). Along with the selected clones, phage-scFv-8-18C5 is expressed to serve as a positive control for ELISA. Briefly, phage-scFv were produced in the form of clones isolated on a 96-well plate in 800 μl of 2YT/ampicillin/glucose cultures infected with the helper phage M13K07 (as described previously). The phages produced overnight at 26° C. were then recovered in the supernatants after 30 minutes of centrifugation at 3000 g. These supernatants were directly diluted 1/2 in PBS/4% BSA/0.1% Tween 20 and tested on Maxisorp immunoplates previously coated with 0.5 μg of human or murine MOG or PBS (background control (bdf) in BSA)/well and blocked with 4% BSA in PBS. After incubation for 2 hours at 37° C., the wells were washed 3 times with PBS/0.1% Tween-20 and bound phages-scfv were detected with anti-M13 HRP antibody (GE Healthcare). The plate is read at 450 nm (OD) on a plate reader (TECAN). The results are expressed as a ratio: OD on target/OD bdf (OD on an uncoated plate saturated with BSA) and the ratios are compared with that obtained for the positive control.

[2] = target: T2, recombinant murine MOG protein (murine, UniProt Q61885 29-156, limits assumed); assay: phage-scFv ELISA on coated recombinant murine MOG (0.5 µg/well), anti-M13 HRP, OD450 over BSA background
T2 construct: Bought recombinant protein; also called MMOG
T2 sequence (looked up): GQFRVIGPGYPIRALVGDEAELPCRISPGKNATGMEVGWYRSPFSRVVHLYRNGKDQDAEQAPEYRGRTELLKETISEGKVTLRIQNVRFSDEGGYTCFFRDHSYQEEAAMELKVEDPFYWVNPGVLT
Description: as §1

B1: anti-MOG MO4H-04 antibody (scFv, V domains shown)
VH: EVQLVQSGAEVKKPVASVKVSCKASGYTFTSYGISWVRQAPGQGLEWMGWISAYNGNTNYAQKLQGRVTMTTDTSTSTAYMELRSLRSDDTAVYYCARNMGCSSTSCFVSWFDPWGQGTLVTVSS
VL: QSALTQPPSASGSPGQSVTISCTGTHSDVGSFDSVSWYQQHPDKAPKLIIYDVNKRPAGVPHRFSGSKSGNTASLTVSGLQSEDEADYYCNSYAGVDNFVFGTGTKVTVL
For B1, the “ratio OD on target/OD bdf” value [1] was 9.36 ratio and the “ratio OD on target/OD bdf” value [2] was 9.78 ratio.

B2: anti-MOG MO3B-03 antibody (scFv, V domains shown)
VH: QVQLQQSGPGLVRPSQTLSLTCAISGDSVSSSSAAWNWVRSPSRGLEWLGRTYYRSKWYYDYAVSVKNRIAINPDTSKNQFSLHLNSVTPEDTAVYYCATGWLRGHLDYWGQGTLVTVSS
VL: AIQMTQSPSSVSASVGDRVTITCRATQSISTYLNWYQQKVGRGPKLLVYAASRLQTGVPSRFSGSGSGTDFTLTISSLQPEDSATYYCQQSYSAPPAFGGGTKVEIK
notes: T0004 labels followed
For B2, the “ratio OD on target/OD bdf” value [1] was 6.23 ratio and the “ratio OD on target/OD bdf” value [2] was 5.55 ratio.

B3: anti-MOG MO4H-55 antibody (scFv, V domains shown)
VH: QVQLQQSGPGLVKPSQTLSLTCAISGDSVSSNSAAWNWIRQSPSRGLEWLGRTYYRSKWYNDYAESVKSRMTVTSDTSKNQVSLHLNSVTPEDTAVYYCAREHIAVPGVFDIWGQGTLVTVSS
VL: DVVMTQPPSASGTPGQGVTISCSGSSSNIGSNTVNWYQQLPGTAPKLLIYGSGQRPSGVPDRFSGSRSGTSASLAISGLQSEDEADYYCAAWDDSLNGRVFGQGTKVDIT
B3 was tested, and the “ratio OD on target/OD bdf” value [1] was 2.99 ratio.

B4: anti-MOG MO3J-72 antibody (scFv, V domains shown)
VH: EVQLVESGGGSVKPGGSLRLSCAASGFRFDDYAMHWVRQAPGKGLEWVSGISWNSGAIGYADSVQGRFTISGDNAKNTLYLQMNGLRVEDTAMYYCARDGHGDYPIDYWGQGTLVTVSS
VL: QSVLTQPPSVSGAPGQRVSISCTGSGSNIGAGFDVHWYQQVPGTTPKLLIYGNNNRPSGVPDRFSGSTSATSASLAITGLQADDEADYYCQSYDRSLRYVFGTGTKLTVL
B4 was tested, and the “ratio OD on target/OD bdf” value [1] was 2.05 ratio.

B5: anti-MOG MO4H-51 antibody (scFv, V domains shown)
VH: QVQLVQSGAEVKKPGASVKVSCKASGYTFTSYGMHWVRQAPGQRLEWMGWINPGNGNTKYSQKFQGRVTITRDTSASTAYMDLSSLRSEDTAVYYCARLPRIGGWFDPWGQGTLVTVSS
VL: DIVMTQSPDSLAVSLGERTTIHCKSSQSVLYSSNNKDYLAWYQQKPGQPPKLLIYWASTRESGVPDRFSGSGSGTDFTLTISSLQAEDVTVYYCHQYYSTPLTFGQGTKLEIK
For B5, the “ratio OD on target/OD bdf” value [1] was 3.46 ratio.

B6: anti-MOG MO4H-46 antibody (scFv, V domains shown)
VH: QVQLVQSGAEVKKPGASVKVSCKASGYTFTSYAMHWVRQAPGQRLEWMGWINAGNGNAKYSQKFQGRVTLTRDTSASTAYMKLSSLRSEDTAVYYCARGAPTYRYFDLWGRGTLVTVSS
VL: QSVLTQPPSVSAAPGQKVTISCSGSSSNIGNNYVAWYQQLPGTAPKLLIYDNNKRPSGIPDRFSGSKSGTSATLGITGLQTGDEADYYCGTSDSSLSAVVFGGGTKLTVL
With B6 the “ratio OD on target/OD bdf” value [1] was 6.57 ratio and the “ratio OD on target/OD bdf” value [2] was 4.68 ratio.

B7: anti-MOG MO4H-03 antibody (scFv, V domains shown)
VH: QVQLVQSGTEVKKPGASVKVSCKVSGYTLTELSMHWVRQAPGKGLEWMGGFDPEDGETIYAQKFQGRVTMTEDTSTDTAYMELSSLRSEDTAVYYCATGATGAFDIWGQGTTVTVSS
VL: DIVMTQTPLSSPVTLGQPASISCRSSQSLVDSDGNTYLNWLQQRPGQPPRLLIYKISNRFSGVPDRFSGSGAGTEFTLKISRVEAEDVGVYYCMQATQFPHTFGQGTKLEIK
B7 was tested, and the “ratio OD on target/OD bdf” value [1] was 5.14 ratio and the “ratio OD on target/OD bdf” value [2] was 9.12 ratio.

B8: anti-MOG MO4H-65 antibody (scFv, V domains shown)
VH: EVQLVQPGAEVKKPGASVKVSCKASDYTFTSYGISWVRQAPGQGLEWMGWISAYNGNTYYARKFGRVTMTTDTSTTTAYMELRRLRSEDTAVYYCARSGVDNIDYLFDYWGQGTLVTVSS
VL: EIVMTQSPGTMSVSPGESATLSCRASQSVSSNLAWYQQKPGQAPRLLIYGASTRATGLPARFSGSGSRTDFTLTISSLQPEDFATYYCQQTTSFPLTFSGGTKLEIT
With B8 the “ratio OD on target/OD bdf” value [1] was 2.44 ratio.
